Target: T1, mouse IFIT3 (M. musculus Ifit3, co-expressed with Ifit2 in E. coli) (M. musculus, UniProt Q64345 8-389)
T1 construct: also called interferon-induced protein with tetratricopeptide repeats 3
T1 sequence: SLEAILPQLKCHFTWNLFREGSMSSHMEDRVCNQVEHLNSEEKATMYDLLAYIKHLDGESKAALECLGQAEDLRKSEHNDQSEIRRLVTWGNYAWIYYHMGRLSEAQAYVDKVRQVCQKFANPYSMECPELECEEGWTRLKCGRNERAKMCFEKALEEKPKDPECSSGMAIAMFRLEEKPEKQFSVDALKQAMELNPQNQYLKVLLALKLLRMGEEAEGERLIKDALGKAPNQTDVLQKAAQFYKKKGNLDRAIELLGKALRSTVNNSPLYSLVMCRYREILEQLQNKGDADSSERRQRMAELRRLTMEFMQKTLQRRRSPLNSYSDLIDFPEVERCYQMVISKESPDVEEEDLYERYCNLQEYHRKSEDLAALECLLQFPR
Assay: cryo-EM structure
Details: both partners purified

B1: mouse IFIT2 (M. musculus Ifit2, co-expressed with Ifit3 in E. coli) (natural protein, UniProt Q64112 1-472, looked up)
chain: MSTTSKESLVCNLRQLKCHFTWNLIAEDESLDEFEDRVFNKDEFQNSEFKATMCNILAYVKHCRGLNEAALQCLGEAEGFIQQQHPDQVEIRSLVTWGNYAWVYYHMGQFSKAQAYLDKVKQVCKKFSSPYRIENPALDCEEGWARLKCTKNQNERVKVCFQKALEKDPKNPEFTSGWAIAFYRLDDWPARNYCIDSLEQAIQLSPDNTYVKVLLALKLDAVHVHKNQAMALVEEALKKDPSAIDTLLRAARFYCKVYDTDRAIQLLRKALEKLPNNAYVHYYMGCCYRSKVHHMLNRREMVFSGDRKKLEELIQLAVNHLRKAEEIKEMLEYSCSFLADLYIIAKKYDEADYYFQKELSKDLPPGPKQLLHLRYGNFQFFQMKRQDKAIYHYMEGVKIKKKTIPQKKMREKLQRIALRRLHEDESDSEALHILAFLQENGGGQQADKDSERGVDSANQVPSASLDEDGAEY
notes: also called interferon-induced protein with tetratricopeptide repeats 2; source: E. coli Rosetta pLysS, co-expressed with Ifit3, purified (nickel column, TEV cleavage, Superdex 200 size exclusion)
- stoichiometry N: 1

Reference: article PMC12570964 (Nature Microbiology, 2025)
